Laboratory results from PMC4914101 (Nucleic Acids Research, 2016).
Like-named read-outs stand apart in the source and are kept apart here.

T1: SART3 HAT repeat domain (residues 94–611) (human, UniProt Q15020 94-611)
T1 sequence (looked up): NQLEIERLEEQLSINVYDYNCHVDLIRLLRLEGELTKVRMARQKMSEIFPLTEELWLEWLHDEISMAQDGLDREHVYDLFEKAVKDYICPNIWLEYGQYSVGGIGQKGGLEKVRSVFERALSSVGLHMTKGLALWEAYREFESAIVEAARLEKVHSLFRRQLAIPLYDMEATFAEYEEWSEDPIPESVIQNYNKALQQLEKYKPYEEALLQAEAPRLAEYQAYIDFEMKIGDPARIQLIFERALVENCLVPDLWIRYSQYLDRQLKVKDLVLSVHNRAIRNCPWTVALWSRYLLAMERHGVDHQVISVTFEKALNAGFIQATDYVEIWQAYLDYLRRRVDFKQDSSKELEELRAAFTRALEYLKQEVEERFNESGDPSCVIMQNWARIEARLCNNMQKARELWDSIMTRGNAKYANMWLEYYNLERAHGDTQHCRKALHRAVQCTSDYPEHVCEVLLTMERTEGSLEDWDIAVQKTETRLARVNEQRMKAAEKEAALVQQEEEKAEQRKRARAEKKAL

B1: SART3 HAT-C with Lα (residues 278–611) (domain or fragment, human, UniProt Q15020 278-611, looked up)
chain: PESVIQNYNKALQQLEKYKPYEEALLQAEAPRLAEYQAYIDFEMKIGDPARIQLIFERALVENCLVPDLWIRYSQYLDRQLKVKDLVLSVHNRAIRNCPWTVALWSRYLLAMERHGVDHQVISVTFEKALNAGFIQATDYVEIWQAYLDYLRRRVDFKQDSSKELEELRAAFTRALEYLKQEVEERFNESGDPSCVIMQNWARIEARLCNNMQKARELWDSIMTRGNAKYANMWLEYYNLERAHGDTQHCRKALHRAVQCTSDYPEHVCEVLLTMERTEGSLEDWDIAVQKTETRLARVNEQRMKAAEKEAALVQQEEEKAEQRKRARAEKKAL

What was measured:
[1] = molecular target: mouse importin-α2 (residues 70–498) (mouse, UniProt P52293 70-498); assay: ITC
crystal structure = molecular target: the molecule itself; assay: crystal structure
[2] = molecular target: T1, SART3 HAT repeat domain (residues …); assay: ITC
[3] = molecular target: B1; assay: ITC
[4] = molecular target: T1, SART3 HAT repeat domain (residues …); assay: ITC; remark: listed apart in the source

Kd [2] [nM] | dH [2] [kcal/mol] | stoichiometry N [2] | Kd [3] [nM] | dH [3] [kcal/mol] | stoichiometry N [3] | Kd [4] [nM] | dH [4] [kcal/mol] | stoichiometry N [4] | Binder | also measured
– | – | – | – | – | – | – | – | – | RKRARAEKKALKKKKKIRGPEKRGADEDDEKEWGDDEEEQPSKRRRVEN (domain or fragment) [SART3 NLS (residues 601–649)] | Kd [1]: 210 ± 10 nM; dH [1]: -8.6 ± 0.2 kcal/mol; stoichiometry N [1]: 1.01 ± 0.01
– | – | – | – | – | – | – | – | – | B1 | binding result (crystal structure): binds
20100 ± 4360 | -9.1 ± 0.4 | 0.89 ± 0.15 | – | – | – | – | – | – | USP11^L4 (USP11 DUSP-UBL with the linker replaced by the USP4 linker) (domain or fragment, human, UniProt P51784 73-288, looked up) EELPGLDSQWRQIENGESGRERPLRAGESWFLVEKHWYKQWEAYVQGGDQDSSTFPGCINNATLFQDEINWRLKEGLVEGEDYVLLPAAAWHYLVSWYGLEHGQPPIERKVIEHGLFVKHCKVEVYPVELLLVRHNDLGKSHTVQFSHTDSIGLVLRTARERFLVEPQEDTRLWAKNSEGSLDRLYDTHITVLDAALETGQLIIMETRKKDGTWPSAQL | –
18700 ± 2250 | -5.7 ± 0.7 | 1.06 ± 0.09 | – | – | – | – | – | – | USP11^L15 (USP11 DUSP-UBL with the linker replaced by the USP15 linker) (domain or fragment, human, UniProt P51784 73-288, looked up) EELPGLDSQWRQIENGESGRERPLRAGESWFLVEKHWYKQWEAYVQGGDQDSSTFPGCINNATLFQDEINWRLKEGLVEGEDYVLLPAAAWHYLVSWYGLEHGQPPIERKVIEQGMFVKHCKVEVYPVELLLVRHNDLGKSHTVQFSHTDSIGLVLRTARERFLVEPQEDTRLWAKNSEGSLDRLYDTHITVLDAALETGQLIIMETRKKDGTWPSAQL | –
– | – | – | 140 ± 60 | -17.7 ± 0.5 | 1.09 ± 0.01 | 190 ± 40 | -16.1 ± 0.1 | 0.99 ± 0.01 | DUSP-UBL domains of human USP15 (residues 1–226) (domain or fragment, UniProt Q9Y4E8 1-226, looked up) MAEGGAADLDTQRSDIATLLKTSLRKGDTWYLVDSRWFKQWKKYVGFDSWDKYQMGDQNVYPGPIDNSGLLKDGDAQSLKEHLIDELDYILLPTEGWNKLVSWYTLMEGQEPIARKVVEQGMFVKHCKVEVYLTELKLCENGNMNNVVTRRFSKADTIDTIEKEIRKIFSIPDEKETRLWNKYMSNTFEPLNKPDSTIQDAGLYQGQVLVIEQKNEDGTWPRGPST | –
– | – | – | 580 ± 30 | -21.1 ± 0.4 | 1.05 ± 0.01 | 880 ± 130 | -21.6 ± 0.6 | 1.07 ± 0.02 | DUSP-UBL domains of human USP4 (residues 1–230) (domain or fragment, UniProt Q13107 1-230, looked up) MAEGGGCRERPDAETQKSELGPLMRTTLQRGAQWYLIDSRWFKQWKKYVGFDSWDMYNVGEHNLFPGPIDNSGLFSDPESQTLKEHLIDELDYVLVPTEAWNKLLNWYGCVEGQQPIVRKVVEHGLFVKHCKVEVYLLELKLCENSDPTNVLSCHFSKADTIATIEKEMRKLFNIPAERETRLWNKYMSNTYEQLSKLDNTVQDAGLYQGQVLVIEPQNEDGTWPRQTLQ | –
